For orientation: stoichiometry N means the number of molecules, sites or subunits per partner or assembly.

Experimental findings from publication PMC4933183 are described below.

In test [1] the target is biotinylated human IgM (human). Kind of test: SPR; BIAcore T100, 37 °C, HBS-EP; biotinylated human IgM on streptavidin chip (biotinylated human IgG as reference), gel-filtered monomeric DBL domains injected at 20 μl/min for 2 min to equilibrium; 1:1 Langmuir isotherm.
Test [2] has as its target SPAM fragment of DBLMSP2 (3D7) (Plasmodium falciparum (3D7 strain)). Description: SEC; size exclusion chromatography of the purified Cd4-tagged proteins; markers thyroglobulin, ferritin, aldolase, conalbumin, carbonic anhydrase. (Size exclusion chromatography separates by hydrodynamic size, large species first.)
Test [3] deals with recombinant full-length DBLMSP (3D7), monobiotinylated (Plasmodium falciparum (3D7 strain)). Kind of test: SPR; BIAcore T100, 37 °C, HBS-EP; biotinylated full-length DBLMSP or DBLMSP2 on streptavidin chip, purified human IgM injected 30 min at 10 μl/min to equilibrium; equilibrium fit to a simple Langmuir isotherm; values reflect overall binding avidity.
The target of test [4] is recombinant full-length DBLMSP2 (3D7), monobiotinylated (Plasmodium falciparum (3D7 strain)). The test is described as above.

Regarding “DBL domain of DBLMSP2 (3D7) (domain or fragment)”, in test [1], the Kd worked out at 600 nM.

Substance “DBL domain of DBLMSP (3D7) (domain or fragment)” showed a Kd in test [1] of 60 nM.

Consider “SPAM fragment of DBLMSP2 (3D7) (domain or fragment)”, for which the stoichiometry N in test [2] was > 4.

Consider human IgM (natural protein), for which the Kd came to 0.3 nM in test [3] and 1.1 nM in test [4].
